Substitutions are numbered along the chain they refer to. Values belong to the binder of their own block, whether it stands above or below them.
Tests used:
[1] = molecular target: human insulin receptor complexed with human insulin (human) (UniProt P06213); experiment: FACS, CHO-K1 human INSR cells, signal with insulin divided by signal without insulin
[2] = molecular target: human insulin receptor complexed with human insulin (human) (UniProt P06213); experiment: FACS, serum-starved CHO-K1 cells expressing human INSR, with insulin
[3] = molecular target: mouse insulin receptor complexed with human insulin (mouse; human) (UniProt P15208); experiment: FACS, CHO-K1 mouse INSR cells, signal with insulin divided by signal without insulin
[4] = molecular target: mouse insulin receptor (mouse) (UniProt P15208); experiment: FACS, serum-starved CHO-K1 cells expressing mouse INSR, no insulin
[5] = molecular target: mouse insulin receptor complexed with human insulin (mouse; human) (UniProt P15208); experiment: FACS, serum-starved CHO-K1 cells expressing mouse INSR, with insulin
[6] = molecular target: human insulin receptor complexed with human insulin (human) (UniProt P06213); experiment: FACS, serum-starved CHO-K1 cells expressing human INSR, with insulin [cont'd]
[7] = molecular target: human insulin receptor complexed with human insulin (human) (UniProt P06213); experiment: FACS, CHO-K1 human INSR cells, signal with insulin divided by signal without insulin [cont'd]
[8] = molecular target: human insulin receptor complexed with human insulin (human) (UniProt P06213); experiment: FACS competition on hINSR8-CHOK1 cells with insulin; competitor Ab019
[9] = molecular target: human insulin receptor (human) (UniProt P06213); experiment: FACS, serum-starved CHO-K1 cells expressing human INSR, no insulin
[10] = molecular target: mouse insulin receptor (mouse) (UniProt P15208); experiment: FACS, serum-starved CHO-K1 cells expressing mouse INSR, no insulin [cont'd]

B3: Ab082 (antibody, IgG2, V domains shown)
VH: QMQLVQSGAEVKKPGESLKISCKGSGYSFTSYWIGWVRQMPGKGLEWMGIIYPGDSDTRYSPSFQGQVTISADKSISTAYLQWSSLKASDTAMYYCARWGPDAFDIWGQGTMVTVSS
VL: EIVLTQSPDFQSVTPKETVTISCRASQNIGVSLHWYQQKPDQSPKVLIKYASQSLSGVPSRFSGTGSGTDFTLTIKSLEAEDAATYYCLQTSSLPWTFGQGTKVEIK
FACS area under log transformed data MFI [6]: 236
FACS area under log transformed data MFI ratio (+insulin/-insulin) [7]: 0.59

B5: Ab072 (antibody, IgG2, V domains shown)
VH: QMQLVQSGAEVKKPGESLKISCKGSGYSFTGYWIGWVRQMPGKGLEWMGIIYPGDSDTRYSPSFQGQVTISADKSISTAYLQWSSLKVSDTAMYYCGRISTPYAFDIWGQGTMVTVSS
VL: SYVLTQPPSASGTPGQRVTISCSGSNSNIGSNFVTWYQQLPGAAPKLLIYTNSQRPSGVPDRFSGSRSGTSASLAISGLQSEDEADYFCAAWDDSLNGPVFGGGTQLTVL
FACS area under log transformed data MFI [6]: 84
FACS area under log transformed data MFI ratio (+insulin/-insulin) [7]: 0.37

B6: Ab069 (antibody, IgG2, V domains shown)
VH: EVQLVQSGAEVKKPGESLKISCKGSGYSFTSYWIGWVRQMPGKGLEWMGIIYPGDSDTRYSPSFQGQVTISADKSISIAYLQWSSLKASDTAMYYCARLGRGYYGMDVWGQGTTVTVSS
VL: SSELTQDPAVSVALGQTVRITCQGDSLRSYYASWYQQKPGQAPVLVIYGKNNRPSGIPDRFSGSRSGNTASLTITGAQAEDEADYYCNSRDSSGNHVVFGGGTKVTVL
FACS area under log transformed data MFI ratio (+insulin/-insulin) [1]: 0.41
FACS area under log transformed data MFI [2]: 146

B7: Ab070 (antibody, IgG2, V domains shown)
VH: B6 VH with I78T, A79S, K87R, R101S, Y103W, M106N, V108Y, T114L
VL: B6 VL with A32T, Y48F, R65S, H96Y, V97A, K104Q, V105L
FACS area under log transformed data MFI [6]: 150
FACS area under log transformed data MFI ratio (+insulin/-insulin) [7]: 0.53

B8: Ab061 (antibody, IgG2, V domains shown)
VH: QMQLVQSGAEVKKTGESLKISCQGYGYRFTDNWIGWVRQMPGRGLEWMGIIYPGDSETRYSPSFQGQVTISADKSISTAYLEWSSLKASDTAMYYCARHAPLAVAGMALGDWGQGTLVTVSS
VL: QTVVTQEPSFSVSPGGTVTLTCGLSSGSVSTGYSPGWYQQTPGQAPRTLVYNTNTRSSGVPDRFSGSILGNKAALTITGAQADDESDYYCALYMGSGTYVFGGGTKLTVL
FACS area under log transformed data MFI ratio (+insulin/-insulin) [1]: 0.29
percent competition [8]: < 30%
FACS area under log transformed data MFI [2]: 59

B9: Ab057 (antibody, IgG2, V domains shown)
VH: B8 VH with T14P, Q23K, T30S, E82Q
VL: QTVVTQEPSFSVSPGGTVTLTCGLTSGSVSTSYYPSWYQQTPGQAPRMLVHSTSTRYSGVPDRFSGSILGNKAALTITGAQADDESDYYCALYMGGGIYVFGGGTQLTVL
FACS area under log transformed data MFI ratio (+insulin/-insulin) [1]: 0.56
FACS area under log transformed data MFI [9]: 155
FACS area under log transformed data MFI [2]: 87

B10: Ab078 (antibody, IgG2, V domains shown)
VH: QVQLVQSGGGLVQPGGSLRLSCAASGFTFSSYSMNWVRQAPGKGLEWVSSISSSSSYIYYADSVKGRFTISRDNAKNSLYLQMNSLRAEDTAVYYCARDQGGELLGFTGYFDYWGQGTLVTVSS
VL: DIQLTQSPSSLSASVGDRVTITCRASQGISSALAWYQQKPGKAPKVLIYDASSLERGVPSRFSGSGTGTDFTLTISSLQPEDFASYYCHQFNSYPDTFGQGTRLEIK
FACS area under log transformed data MFI [10]: 12

B11: Ab065 (antibody, IgG2, V domains shown)
VH: QVQLVQSGAEVKKPGESLKISCKGSGYSFTSYWIGWVRQMPGKGLEWMGIIYPGDSDTRYSPSFQGQVTISADKSISTAYLQWSSLKASDTAMYYCARHELGIDYWGQGTLVTVSS
VL: QAGLTQPPSVSKGLRQTATLTCTGDNNIVGDQGAAWLQQHQGHPPKLLSFRNNSRPSGISERFSASRSRNTASLTITRLQPEDAADYYCSAWDSFLSAWVFGGGTKLTVL
FACS area under log transformed data MFI ratio (+insulin/-insulin) [1]: 0.28
FACS area under log transformed data MFI [2]: 57

Second part, the binder after the results:

FACS area under log transformed data MFI ratio (+insulin/-insulin) [1]: 0.3
FACS area under log transformed data MFI [2]: 134
B1: Ab052 (antibody, IgG2, V domains shown)
VH: EVQLVQSGAEVKKPGESLKISCKGSGYRFTSYWIGWVRQMPGRGLEWMGIIYPGDSDTRYSPSFQGQVTISVDKSISTAYLQWSSLKASDTAMYYCATHHASGRGLDPWGQGTLVTVSS
VL: QAMLTQPASLSASPGASASLTCTLRSGINVVAYNIYWYRQKSGSPPQSVLRYKSDSDSERDSGVPSRFSGSKDVSANAGILLISGLQSEDEADYYCLIWHNSAWVFGGGTQLTVL

FACS area under log transformed data MFI ratio (+insulin/-insulin) [3]: 1.98
FACS area under log transformed data MFI [4]: 21
FACS area under log transformed data MFI [5]: 41
B2: Ab056 (antibody, IgG2, V domains shown)
VH: QVQLVQSGSEVKKPGASVKVSCKASGYTFTNSYMHWVRQAPGQGLEWMGIINPSAGTSYAQKFQGRVTMTRDTSTSTVYMELSSLKSEDTAVYYCARDVGWLPGDYWGQGTLVTVSS
VL: QSALTQPASVSESPGQSITISCTGTGSDIGTYNLVSWYQHHPGKAPKLMIYEVTKRPSGVSNRFSGSKSGNTASLTISGLQAEDEADYYCSSYTSSSTLYVFGTGTKLTVL

FACS area under log transformed data MFI [4]: 14
FACS area under log transformed data MFI [5]: 13
B4: Ab059 (antibody, IgG2, V domains shown)
VH: EVQLVQSGAEVKKPGSSVKVSCKASGGTFSSYAISWVRQAPGQGLEWMGRIIPIFGIANYAQKFQGRVTITADKSTSTAYMELSSLRSEDTAVYYCAREPDYDFWNDAFDIWGQGTMVTVSS
VL: QAVLTQPASLSASPGASASLTCTLRSDISVGVYRISWYQQKPGSPPQYLLSYNSDSNNHQGSGVPSRFSGSKDASANAGILLISGLQSEDEADYYCMIWHINAWVFGGGTKVTVL

FACS area under log transformed data MFI [6]: 194
FACS area under log transformed data MFI ratio (+insulin/-insulin) [7]: 0.4
B12: Ab071 (antibody, IgG2, V domains shown)
VH: B11 VH with Q1E, H99W, E100D, L101A, I103Y, D104S, Y105P
VL: B6 VL with I47F, D59G, R65K, V97W, V105L

FACS area under log transformed data MFI ratio (+insulin/-insulin) [1]: 0.32
FACS area under log transformed data MFI [2]: 81
B13: Ab050 (antibody, IgG2, V domains shown)
VH: QVQLVQSGAELKKPGATVKISCKVSGYTFGDYHMHWVKQAPGKGLEWMGLVDPENGETEYGEKFQDRITMAADTSTDTAYMELSSLRSEDTAVYYCARSPSSSGYFRVDGFDIWGQGTMVTVSS
VL: NFMLTQPHSVSESPGKTVSISCTGSSGSIGSNYVQWYQQRPGSAPTTVIYEDNQRPSGVPDRFSGSIDSSSNSASLTISGLKTEDEADYYCQSYYNSNVVFGGGTKLTVL

From US20160009800A1
